In assay [1] the target is T1, human EGFR.His antigen (Acro, Cat #EGR-H522a) (human, UniProt P00533 25-645).
T1 construct: extracellular domain; Bought protein; also called EGFR his tag protein; full-length EGFR extracellular domain protein; not shown: His tag
The assay is described as follows: competition ELISA: EGFR his tag protein coated, antibody titrated together with Human EGF-mouse IgG2a Fc, bound EGF detected with HRP anti-mouse IgG, unit taken from the concentration axis (paragraph 62 says nM); OD450 falls only from about 2.4 to about 2.1-2.2 [table]. As to the method:
(§1) Briefly, EGFR his tag protein was diluted with PBS to 2 μg/mL, and 100 μL of the antigen was added to each well of an ELISA plate and coated overnight at 4° C. The next day, the plates were washed twice with PBST (containing 0.5% TWEEN-20), and then blocked with 3% BSA at 37° C. for 1.5 h, followed by two washes with PBST. […] VHH-IgG4 antibodies were diluted to 2000 nM and then serially diluted 4-fold for 8 gradients. […] After washing 3 times, HRP goat anti-mouse IgG (Goat anti-Mouse IgG) (H+L) antibody (Abcam, cat #ab205719) diluted at 1:3000 was added to each well, and the plate was incubated at 37° C. for 40 min. The plates were then washed 3 times with PBST, and 100 μL of TMB substrate was added to each well and allowed to react for 3-5 min. The reaction was stopped by adding 100 μL of 3N hydrochloric acid per well. After stopping the reaction, the optical density at 450/650 nm was measured using a Tecan microplate reader. The dose-response curve was plotted, and the IC50 was calculated using GraphPad Prism 8.0 software.
For orientation: An ELISA detects its analyte on a solid surface through an enzyme-linked reagent.

In assay [2] the target is T1, human EGFR.His antigen (Acro, Cat …). The assay is described as follows: competition ELISA: EGFR his tag protein coated, antibody titrated together with Human EGF-mouse IgG2a Fc, bound EGF detected with HRP anti-mouse IgG, unit taken from the concentration axis (paragraph 62 says nM); OD450 falls only from about 2.4 to about 2.0-2.2 [table]. As to the method: as §1
Assay [3] concerns the target T2, EGFR on SKOV3 and Aspc-1 tumor cells (human, UniProt P00533).
T2 construct: endogenous, on the cell surface; the cell line is named under assay; also called tumor cell EGFR
The assay is described as follows: flow cytometry on Aspc-1 tumor cells, anti-human IgG PE, MFI, curve fit; unit from the concentration axis and paragraph 62; the curve is barely above Isotype 2: MFI at most about 1500 [table]. As to the method: Two kinds of tumor cells, SKOV3 and Aspc-1, expressing EGFR were respectively plated in 96 well plates, with 3×10⁵ cells per well, and then the tumor cells were incubated with gradient diluted VHH-IgG4 antibody. After incubation on ice for half an hour, anti human IgG PE (Jackson Immuno Research, Code: 109-117-008, Lot:145501) was added for incubation, and then CytoFLEX flow cytometry was used for detection. The EC50 of the antibody was calculated by curve fitting.
(In flow cytometry, cells or beads pass a laser one at a time.)

The values below come from patent US20250215092A1 (ZHEJIANG NANOMAB TECHNOLOGY CENTER, published 2025).

B1: E005 VHH-IgG4 antibody (antibody, V domains shown)
VH: QVQLVESGGGLVQPGGSLRLSCEASGFAFSDYTMRWHRQAAGKELELVAYITSAGDIIKYANSVRGRFTISRDNAKNTLYLQMDSLKPEDTAVYRCNALVSASVRASDYWGQGTLVTVSS
notes: VHH fused to IgG4 (VHH-IgG4), expressed in ExpiCHO, protein A purified; not shown: human IgG4 constant part from the pCDNA3.4-IgG4 vector
Consider B1, for which the IC50 – broadly, the concentration that gives 50% inhibition – in assay [1] amounted to 0.033 µg/mL.

B2: E007 VHH-IgG4 antibody (antibody, V domains shown, not shown: a dimerising Fc or GST)
VH: EVQLVESGGGLVQPGGSLRLSCEASGFSFSDHTMRWHRQAAGKNLELVAYITPAGDIIKYADSVQGRFTISRDNAKNMLYLQMDSLRPDDTAVYRCNALVSAAVRASDYWGQGTQVTVSS
B2: the concentration for half-maximal inhibition (IC50) in assay [2] came out at 0.152 µg/mL.

B3: E004 VHH-IgG4 antibody (antibody, V domains shown, not shown: a dimerising Fc or GST)
VH: EVQLVESGGGLAQSGGSLRLACEASGFPFETYAMSWARQTPGNEPEWVAGIFPDGKHTAYAHSVKGRFTISRVNANNTVYLQMDSLKPEDTAVYYCAKDLPFFATPSFYIGYWGQGTLVTVSS
For the molecule B3, the 50% effective concentration (EC50) – broadly, the concentration at which the effect is half-maximal – in assay [3] was 3.6 nM.
